The target of this test is peptide from Dynamin1 proline-rich domain. The experiment in a line: not stated; monomeric GRAF1 SH3 domain with a peptide from the Dynamin1 proline-rich domain; method in Figure S2D or the supplement, not shown.

B1: Monomeric GRAF1 SH3 domain (domain or fragment)
chain: TPFRKAKALYACKAEHDSELSFTAGTVFDNVHPSQEPGWLEGTLNGKTGLIPENYVEFL
Consider B1, for which the Kd (usually the free concentration of one partner at which half of the binding sites on the other are occupied at equilibrium, for simple one-to-one binding) is 106 µM.

(Values after paper PMC2726289.)
